Experimental data reported in PMC9143278.

molecular target: human and murine IL-1R1 on HEK-Blue IL-1R cells (human and murine)

| Molecule | SEAP reporter (620 nm) in HEK-Blue IL-1R cells after overnight incubation; EC50 of a 3-fold dilution series from 100 ng/mL | SEAP reporter (620 nm) in HEK-Blue IL-1R cells after overnight incubation; EC50, positive control |
| --- | --- | --- |
| IL-1β(H30G)-Tag (ligand) | 2.4 | – |
| IL-1β(Q15G)-Tag (ligand) | 5.8 | – |
| IL-1β-Tag (His-TEV-muIL-1β-Tag, wild type) (from UniProt P10749 118-269) (ligand) | 0.75 | – |
| muIL-1β (commercial recombinant murine IL-1β) (ligand) VPIRQLHYRLRDEQQKSLVLSDPYELKALHLNGQNINQQVIFSMSFVQGEPSNDKIPVALGLKGKNLYLSCVMKDGTPTLQLESVDPKQYPKKKMEKRFVFNKIEVKSKVEFESAEFPNWYISTSQAEHKPVFLGNNSGQDIIDFTMESVSS | – | 0.21 |

More lines, now with the values ahead:

| SEAP reporter (620 nm) in HEK-Blue IL-1R cells after overnight incubation; EC50 of a 3-fold dilution series from 100 ng/mL | SEAP reporter (620 nm) in HEK-Blue IL-1R cells after overnight incubation; EC50, positive control | Molecule |
| --- | --- | --- |
| 0.89 | – | IL-1β(N32G)-Tag (ligand) |
| 2.7 | – | IL-1β(R11G)-Tag (ligand) |
| – | 0.25 | huIL-1β (commercial recombinant human IL-1β) (from UniProt P01584 117-269) (ligand) |
